Reference: the supplement of paper PMC10567573

B1: VTI1B (parent)
chain: NKLLLSIIILLELAILGGLVYYKF

Variants of: B1
Test: protein stability index of a GFP-peptide fusion (GPS, HEK-293T) (PSI 1-6); higher = more stable
Conditions: c terminus: a fixed tail appended
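Further: lentivirally expressed fusions sorted by FACS into six bins by GFP to DsRed ratio, PSI derived from sequencing read proportions per bin multiplied by bin number.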

Variant	protein stability index
NKLLLSLIILLELAILGGLVYYKF [I7L]	3.54
NKLLLSIVILLELAILGGLVYYKF [I8V]	2.56
NKLLLSIGILLELAILGGLVYYKF [I8G]	1.21
NKLLLSISILLELAILGGLVYYKF [I8S]	3.02
NKLLLSIQILLELAILGGLVYYKF [I8Q]	3.49
NKLLLSIAILLELAILGGLVYYKF [I8A]	3.36
NKLLLSIRILLELAILGGLVYYKF [I8R]	1.95
NKLLLSIWILLELAILGGLVYYKF [I8W]	2.33
NKLLLSIDILLELAILGGLVYYKF [I8D]	3.18
NKLLLSIPILLELAILGGLVYYKF [I8P]	2.61
NKLLLSIIILLELATLGGLVYYKF [I15T]	2.54
NKLLLSIIILLELAGLGGLVYYKF [I15G]	3.52
NKLLLSIIILLELAHLGGLVYYKF [I15H]	2.83
NKLLLSIIILLELAKLGGLVYYKF [I15K]	3.29
NKLLLSIIRLLELAILGGLVYYKF [I9R]	3.19
NKLLLSIICLLELAILGGLVYYKF [I9C]	2.97
NKLLLSIIFLLELAILGGLVYYKF [I9F]	2.03
NKLLLSIIDLLELAILGGLVYYKF [I9D]	3.1
NKLLLSIINLLELAILGGLVYYKF [I9N]	3.49
NKLLLSIIQLLELAILGGLVYYKF [I9Q]	3.18
NKLLLSIISLLELAILGGLVYYKF [I9S]	4.04
NKLLLSIIELLELAILGGLVYYKF [I9E]	2.85
NKLLLSIIGLLELAILGGLVYYKF [I9G]	2.8
NKLLLSIIMLLELAILGGLVYYKF [I9M]	3.54

Variant	protein stability index
NKLLLSIIILLELAILGGLVYDKF [Y22D]	2.55
NKLLLSIIILLELAILGGLVYSKF [Y22S]	1.56
NKLLLSIIILLELAILGGLVYMKF [Y22M]	3.54
NKLLLSIIILLELAILGGLVYKKF [Y22K]	1.71
NKLLLSIIILLELAILGGLVYNKF [Y22N]	2.47
NKLLLSIIILLELAILGGLVYEKF [Y22E]	1.54
NKLLLSIIILLELAILGGLVYTKF [Y22T]	2.95
NKLLYSIIILLELAILGGLVYYKF [L5Y]	3.05
NKLLQSIIILLELAILGGLVYYKF [L5Q]	4.28
NKLLDSIIILLELAILGGLVYYKF [L5D]	2.64
NKLLISIIILLELAILGGLVYYKF [L5I]	3.01
NKLLNSIIILLELAILGGLVYYKF [L5N]	3.71
NKLLRSIIILLELAILGGLVYYKF [L5R]	1.8
NKLLWSIIILLELAILGGLVYYKF [L5W]	1.86
NKLLLSIIILLELAILGGLVYYSF [K23S]	2.05
NKLLLSIIILLELAILGGLVYYMF [K23M]	4.1
NKLLLSIIILLELAILGGLVYYWF [K23W]	2.23
NKLLLSIIILLELAILGGLVYYGF [K23G]	2.08
NKLLLSIIILLELAILGGLVYYEF [K23E]	2.78
NKLLLSIIILLELAILGGLVYYTF [K23T]	2.41
NKLLLSIIILLELAILGGLVYYPF [K23P]	3.73
NKLLLSIIILLELAILGGLVYYNF [K23N]	2.72
NKLLLSIIILLELAILGGLVYYQF [K23Q]	3.58
NKLLLSIIILLELAILGGLVYYAF [K23A]	2.52

Variant	protein stability index
NKLLLSIIILLELAILEGLVYYKF [G17E]	3.26
NKLLLSIIILLELAILFGLVYYKF [G17F]	3.71
NKLLLSIIILLELAILSGLVYYKF [G17S]	3.45
NKLLLSIIILLELAILQGLVYYKF [G17Q]	3.08
NKLLLSIIILLELAILNGLVYYKF [G17N]	2.64
NKLLLSIIILLELAILRGLVYYKF [G17R]	2.35
NKLLLSIIILLELAILHGLVYYKF [G17H]	2.42
NKLLLSIIILGELAILGGLVYYKF [L11G]	2.94
NKLLLSIIILCELAILGGLVYYKF [L11C]	2.36
NKLLLSIIILNELAILGGLVYYKF [L11N]	3.97
NKLLLSIIILMELAILGGLVYYKF [L11M]	3.36
NKLLLSIIILEELAILGGLVYYKF [L11E]	3.84
NKLLLSIIILHELAILGGLVYYKF [L11H]	4.16
NKLLLSIIILDELAILGGLVYYKF [L11D]	3.12
NKLLLSIIILRELAILGGLVYYKF [L11R]	3.68
NKLLLSIIILPELAILGGLVYYKF [L11P]	2.43
NKLLLSIIILLELAILGSLVYYKF [G18S]	3.16
NKLLLSIIILLELAILGYLVYYKF [G18Y]	1.86
NKLLLSIIILLELAILGPLVYYKF [G18P]	2.88
NKLLLSIIILLELAILGNLVYYKF [G18N]	2.96
NKLLLSIIILLELAILGLLVYYKF [G18L]	2.61
NKLLLSIIILLELAILGCLVYYKF [G18C]	3.99
NKLLLSIIILLELAILGELVYYKF [G18E]	2.07
NNLLLSIIILLELAILGGLVYYKF [K2N]	1.92

Variant	protein stability index
NDLLLSIIILLELAILGGLVYYKF [K2D]	2.35
NALLLSIIILLELAILGGLVYYKF [K2A]	3.74
NELLLSIIILLELAILGGLVYYKF [K2E]	2
NKLLLYIIILLELAILGGLVYYKF [S6Y]	2.76
NKLLLTIIILLELAILGGLVYYKF [S6T]	3.52
NKLLLWIIILLELAILGGLVYYKF [S6W]	2.11
NKLLLEIIILLELAILGGLVYYKF [S6E]	3.51
NKLLLAIIILLELAILGGLVYYKF [S6A]	3.54
NKLLLKIIILLELAILGGLVYYKF [S6K]	2.63
NKLLLLIIILLELAILGGLVYYKF [S6L]	2.02
NKLLLNIIILLELAILGGLVYYKF [S6N]	2.47
NKLLLSIIILLELAILGGHVYYKF [L19H]	1.56
NKLLLSIIILLELAILGGQVYYKF [L19Q]	3.21
NKLLLSIIILLELAILGGGVYYKF [L19G]	3.14
NKLLLSIIILLELAILGGAVYYKF [L19A]	3.32
NKLLLSIIILLELAILGGSVYYKF [L19S]	3.48
NKLLLSIIILLELAILGGFVYYKF [L19F]	2.77
NKLLLSIIILLELAILGGIVYYKF [L19I]	3.35
NKLLLSIIILLELAILGGMVYYKF [L19M]	2.76
NKLLLSIIILLELAILGGRVYYKF [L19R]	2.95
NKLLLSIIILLELAILGGEVYYKF [L19E]	4.42
NKLLLSIIILLELAILGGWVYYKF [L19W]	2.91
